For one series, the system named is ischemic myocardium. Put plainly: Myocardial ischemia mouse model, Example 18. As to the method: Acute myocardial ischemia and hind limb ischemia mouse models were performed as previously described (Luttun et al., Nat Med, 2002 1:1; Heymans et al., Nat Med, 1999 5:1135-42). Subcutaneously implanted osmotic minipumps (Alzet, type 2001) were used for continuous protein delivery for 7 days. Human PDGF-CC core domain protein was produced as described (Li et al., Nat Cell Biol, 2000 2:302-309). Fluorescent or color dye microspheres (yellow, 15 μm, Molecular Probes) were administered after maximal vasodilatation (sodium nitroprusside, 50 ng/ml, Sigma) for blood flow measurement, and flow was calculated as described (Carmeliet et al., Nat Med, 1999 5:495-502). For histology, the hearts were harvested seven days after LAD ligation, and sectioned longitudinally (6 μm). Infarcted areas were morphologically inspected after immunohistochemistry staining using thrombomodulin (rabbit anti-TM, for all vessels) and smooth muscle alpha-actin (mouse anti-SMA, for mature SMC covered vessels, Dako), and vessel densities calculated. Gastrocnemius muscles after femoral artery ligation were sectioned transversally and analysed after H&E or immunostainings with the EC marker CD31 (PECAM, rat anti-CD31, Pharmingen). Vessel densities and tissue necrosis/regeneration in the gastrocnemius muscle were analyzed morphometrically using the KS300 image analysis soft ware (Zeiss). Remodeling of collateral vessels in the upper hindlimb after femoral ligation was quantified as reported (Luttun et al., Nat Med, 2002 1:1).
A previously established mouse model of myocardial ischemia was used to assess whether PDGF-CC is capable of stimulating the revascularization of ischemic myocardium. After coronary ligation, new vessels revascularize the ischemic core from its surrounding border region. For PDGF-CC to stimulate new vessel growth, its receptor, PDGFR-α, should be expressed in the heart. […] To examine whether PDGF-CC could stimulate revascularization of the ischemic myocardium, we delivered, using a minipump, continuously over one week after coronary ligation, recombinant human PDGF-CC core domain protein, which is known to bind and activate PDGFR-α (Li et al., Nat Cell Biol, 2000 2:302-309). […] After seven days, angiogenesis was quantified by counting the number of endothelial cell (EC)-lined vessels in the ischemic area after immunolabeling with thrombomodulin (TM). Vessel maturation (arteriogenesis) was evaluated by counting the arterioles, immunoreactive for smooth muscle cell α-actin (SMA).

The next series has as its system HMVEC. In words: HMVEC proliferation assay. The following applies: 50 ng/ml, 7 days. Type of series: cell-based, human. The method, then:
Cell migration assays were performed on growth arrested confluent HMVEC, BAEC or hSMC cells. Cell monolayers were wounded with a rubber policeman and washed with serum-free medium. Dishes were then incubated for 20 hours in serum-free medium containing VEGF165, PDGF-AA, (R&D Systems, Minneapolis USA) or PDGF-CC. Each assay included two dishes per condition and was repeated three times independently. Cells were photographed at 40× magnification, and migration percentage corresponding to the ratio between area of the cells and the total area of the wound (Biocom visiol@b 2000 version 4.52, San Diego). For HMVEC proliferation assay, cells were seeded in 96-well plates (5 wells per condition), and incubated with VEGF, PDGF-AA, or PDGF-CC (50 ng/ml) after serum starvation. After 7 days, viable cells were counted using the cell Titer-glo luminescent cell viability assay. For NIH-3T3 and hSMC proliferation assay, cells cultured in 96-well plates were serum-starved overnight, followed by treatment with growth factors at different concentrations. Two days later, cell numbers were counted and proliferation percentage calculated, using cells cultured in medium containing 10% serum as control. Aortic ring assay was performed as described 51. […] Aortic rings were analysed at day 9 of culturing. […]

The subject of another series is PDGFR-α. Put plainly: PDGFR-α expression in gastrocnemius muscle by RNAse protection analysis. Type of series: in vivo, mouse. The following applies: 4.5 μg daily, day 2 after ligation, compared to vehicle. As to the method: RNase protection analysis (RPA) was performed according to the manufacturer's protocol (Ambion) to investigate gene expression at mRNA level. Riboprobes were prepared using RNA polymerase (Promega) and ^32P-UTP (Amersham). Mouse β-actin cDNA (250 bp, Ambion) was used as an internal control. For Western blot assay, subconfluent cells were rinsed with cold PBS supplemented with 5 µg/ml of antiprotease cocktail, lysed in RIPA buffer and analyzed on 10% acrylamide SDS PAGE in reducing condition. […] The precipitants were analysed on SDS-PAGE, and immunoblotted using a monoclonal anti-phosphotyrosine antibody (Santa Cruz).
To further verify the angio/arteriogenic activity of PDGF-CC in vivo, the effect of PDGF-CC in an established mouse model of hind limb ischemia is investigated (Luttun et al., Nat Med, 2002 1:1). PDGFR-α expression was quantified by RNAse protection analysis in the gastrocnemius muscle, which becomes highly ischemic after ligation of the femoral artery (Deindl et al., Circ Res, 2001 89:779-86; Couffinhal et al., American Journal of Pathology, 1998 152:1667-1679). […] Revascularization of the ischemic gastrocnemius muscle, which only occurred in those regions where regenerating muscle replaced the necrotic avascular muscle, was scored after continuous delivery, by osmotic minipump, of 4.5 μg PDGF-CC per day for one week after femoral artery ligation. […]

Setting [1] is: 4.5 μg/day, minipump, seven days.

B1: PDGF-CC: recombinant human PDGF-CC core domain homodimer, residues 230-345 of full-length PDGF-C (SEQ ID NO:40), produced in baculovirus infected insect cells (protein)
chain: GRKSRVVDLNLLTEEVRLYSCTPRNFSVSIREELKRTDTIFWPGCLLVKRCGGNCACCLHNCNECQCVPSKVTKKYHEVLQLRPKTGVRGLHKSLTDVALEHHEECDCVCRGSTGG
modifications: homodimer; PDGF-C core domain
As to B1, the TM-positive vessel density entry with ischemic myocardium (1.5 μg/day, minipump, seven days) is on record as “minimally affected”. The molecule also showed an SMA positive vessels in the series on ischemic myocardium (1.5 μg/day, minipump, seven days, ischemic area) of 53.1±3.7 vessels/mm^2. Besides, the “increase in number of SMA-positive arterioles” value in the series on ischemic myocardium (1.5 μg/day, minipump, seven days, vs saline) was 1.36 fold. In the series with ischemic myocardium (setting [1]), the “angiogenesis (TM-positive vessels in ischemic area)” value is recorded as “significantly stimulated” and the “arteriogenesis (SMA-positive arterioles in ischemic area)” value was “significantly stimulated”. The “blood flow (perfusion of the ischemic myocardial region)” value in the series on ischemic myocardium (4.5 μg/day, n=7-9) was 2.2 ± 0.2 mL/min/g. Moreover, in the series on ischemic myocardium (minipump, seven days), the “hemorrhage, edema or fibrosis in treated hearts” value is reported as “No signs of hemorrhage, edema or fibrosis” and the “tolerability (weight loss, inactivity)” value is on record as “no signs of toxicity”. For the same molecule, the “vessel density in other organs” value with ischemic myocardium (non-ischemic organs) is given as “no differences”. Moreover, the EC proliferation entry in the series with HMVEC is given as “no effect”. The “PDGFR-α expression in gastrocnemius muscle” value in the series with PDGFR-α is given as “almost completely restored”.

These data come from US20070172423A1, “Composition and method for modulating vasculogenesis for angiogenesis” (priority 1998, published 2007).
